From article PMC3857619 (2013)

Target: recombinant PTB (Homo sapiens (Human), UniProt P26599)
Assay: in vitro co-IP (anti-PTB) with western blot

Chain of recombinant PTB (P26599 whole entry): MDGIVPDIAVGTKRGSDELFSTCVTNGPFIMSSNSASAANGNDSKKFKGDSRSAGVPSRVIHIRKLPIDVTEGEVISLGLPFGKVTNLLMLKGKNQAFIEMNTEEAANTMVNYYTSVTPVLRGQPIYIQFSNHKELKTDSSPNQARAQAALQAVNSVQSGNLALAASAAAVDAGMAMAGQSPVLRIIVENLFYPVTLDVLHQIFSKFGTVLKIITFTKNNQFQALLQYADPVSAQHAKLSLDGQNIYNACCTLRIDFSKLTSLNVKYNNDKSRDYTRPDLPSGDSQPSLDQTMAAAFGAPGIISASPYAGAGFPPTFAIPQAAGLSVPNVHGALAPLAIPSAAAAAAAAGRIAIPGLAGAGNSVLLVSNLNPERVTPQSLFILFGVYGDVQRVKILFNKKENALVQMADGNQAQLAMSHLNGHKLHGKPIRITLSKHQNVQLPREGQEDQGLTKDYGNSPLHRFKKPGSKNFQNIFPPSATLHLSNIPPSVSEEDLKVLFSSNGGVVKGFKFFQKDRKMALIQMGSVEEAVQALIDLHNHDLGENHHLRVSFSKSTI

B1: recombinant hnRNPA1 (protein)
chain: MSKSESPKEPEQLRKLFIGGLSFETTDESLRSHFEQWGTLTDCVVMRDPNTKRSRGFGFVTYATVEEVDAAMNARPHKVDGRVVEPKRAVSREDSQRPGAHLTVKKIFVGGIKEDTEEHHLRDYFEQYGKIEVIEIMTDRGSGKKRGFAFVTFDDHDSVDKIVIQKYHTVNGHNCEVRKALSKQEMASASSSQRGRSGSGNFGGGRGGGFGGNDNFGRGGNFSGRGGFGGSRGGGGYGGSGDGYNGFGNDGGYGGGGPGYSGGSRGYGSGGQGYGNQGSGYGGSGSYDSYNNGGGGGFGGGSGSNFGGGGSYNDFGNYNNQSSNFGPMKGGNFGGRSSGPYGGGGQYFAKPRNQGGYGGSSSSSSYGSGRRF
  binding result: binds
